± gives the uncertainty stated by the source.
Test: amyloid nucleation score (Sup35N fusion, yeast selection) (log enrichment); library NNK3; higher = more nucleation; inactive = no reads after selection
Method in brief: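 The nucleation score is the DiMSum log enrichment of output over input reads, centred on the mode score of non-aggregating sequences. Only sequences with 100 or more input reads were scored, using Illumina sequencing of input and output plasmid inserts. Psi-negative yeast expressing Sup35N fused to peptides of 20 random codons were induced 24 hours with 100 μM copper sulfate and grown 7 days at 30°C on medium lacking adenine and uracil.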

Substance | amyloid nucleation score
ASVMLNFC | inactive
SCGACLKEGRSG | inactive
GSLMRVLLFEYLMDTCLWIV | inactive
LSRRNFIRNNVVQ | inactive
WFFILD | inactive
FVTKRCFDMLF | inactive
PHCVWDFLVRYGMDENRVKY | inactive
VLMQSS | -0.36 ± 1.2
PDHSHHCV | inactive
SFYIVVRWMYIRFVDQYLIY | inactive
WYTVRSKYANHVNDRHSRRW | -0.507 ± 0.98
EYNPTYYFYRTFMAFFLKMI | inactive
WNHLDERANELCCN | inactive
IFYDNADTSKMNHISH | inactive
CNMPGLVDDFLCHGICNNVV | inactive
YCMYMCFSVMAGGGIVTMLW | inactive
WTRMCSSVRTVR | inactive
IAEDIRARPSVWDLMRSSAI | inactive
VYNRVHNCGMKVANYDTRDK | inactive
EKDISAAMRMHGR | -0.315 ± 0.9
NPRNMTPSLVFTDWLS | inactive
ISVVFSGKNSLKEMRMKMAG | 0.469 ± 0.21
FFLYAVLLFTLLPSVLASGN | inactive
ENTCYRVGALIAAFTSFKLW | inactive

Substance | amyloid nucleation score
VPGFLGLTLHLLRREHQQNH | inactive
NFSPHTFVSNSM | inactive
CIFTIFNYQTLIELSHYFSR | 1.82 ± 0.067
SLDWCIRVITGGLRSVVRA | inactive
GWRAIWGNWNLQYRTS | inactive
HLLEVFKDSCRTRGRMLLWG | inactive
LINKLENLIYSG | inactive
EYADTEKVASNVLFFSRLAG | inactive
FKASSGWLDLWD | inactive
WLHRTKLWPYFYVKLFPRDK | inactive
CHFPG | inactive
RTTAK | inactive
IYLASSLNRILISEQSILPG | inactive
LSRLGWYRFCTIMGCYFWIL | inactive
CKCVNLQFAVTIHCGGFVPF | 2.52 ± 0.072
SALLKWYRYTSAWSGNDVAA | inactive
RCYCCPRTDSLGMG | inactive
RFWCLVVCTRLVHMENGRCS | inactive
SRSAY | inactive
WLVRMN | inactive
SDGVGQLDSDVHSGGGDNRQ | inactive
RSEWQMTRNYRVWGCYI | inactive
CVFLCDDWFGFCNLNRRFKG | 2.82 ± 0.074
TSRRVCLQ | inactive

Substance | amyloid nucleation score
SAGIIFCMKSLVFSFLFITL | inactive
CYRLQAFNARGTERTDAVYL | inactive
FCDNQWRHKPTRVTIFFE | inactive
ICGMWGFDAMRITSWNVPNG | 0.075 ± 0.29
LQYLVNLLMQWVLRKIVQKV | inactive
NSGGFSKDDGNGYKA | inactive
MSCYN | inactive
CGSWYSCCKNINEVARSYTG | inactive
CKFSDW | inactive
PVGVLYTSANGTDFVNIVRD | inactive
HWESGGKIWNKEYLAGLLPR | inactive
VRIFYMV | inactive
SMHARGDL | inactive
YCTGLIFPAFSNLEDSTLLF | inactive
FFRSQKWKSAYMLDNGHSNS | inactive
FVGTCGMMSALFLHSSPSFV | inactive
IVCCQYQNYLNGSPLNIVLI | inactive
DSFNCDFNMCHDYVM | inactive
KASHWV | inactive
WRVHHFGWAGEY | inactive
MYLPWISSSGVLNRTSMSFY | 0.668 ± 0.12
NLGTTLYVEICNWRIVLYIV | inactive
SSCKDPRRKE | inactive
ERFLIPSDLNYKYA | inactive

Substance | amyloid nucleation score
PENDRNMLLVSVIVPRYIAT | inactive
NYEQCNSHSCMIFLFRTDYS | inactive
VSKESILGGRCVM | inactive
TPMGQCAYHEPVNMVKKALR | inactive
GLLNSD | inactive
FCGKLSCCFIRLAELFLVGK | inactive
RLSGVIGT | inactive
RVACFQIHGK | inactive
TRRATGYFHFS | inactive
PVGHSSMSLYRGR | inactive
HSLTGSHSFVGF | inactive
LEQYEKLRGSPKVNRRMCNQ | inactive
KQSLSMVWRKSDLALKVMVG | 0.904 ± 0.15
AVNMLESFFGGVPLRSLCFV | inactive
YGEEEVE | inactive
IGHGYMVDRWILRVVMVVAL | inactive
PLNMSRCTLALTLFVISFGW | inactive
IYVTIEFASIVCSCWESLDR | -0.091 ± 0.8
MSMRLRIYKFFEICANSMMP | inactive
HNLHSYEHRVRTSQAV | inactive
MFFQLVCYFNLSTVMTSYFE | 0.593 ± 0.14
LHCPISYLAMSKKS | inactive
CCRGRAFVGYLLQIIYVRGR | inactive
STLVFPLKFFELCSKD | inactive

Substance | amyloid nucleation score
RVRNDYLPDRHWFSKHRGTK | inactive
TMSGFYYNSFIRYNLAL | inactive
SAPKWGGTYDRVCTISNFTV | inactive
PGSDWDMLIMKGMKKRYLDY | inactive
VGLSYVMINLGLPYLGRSAT | 1.83 ± 0.082
FWYSYQ | inactive
VVCELCGSYYYIHCWDCNAS | 2.75 ± 0.069
ALSSNKSCVQYS | inactive
IQSYK | inactive
WCSSWSRILTQVACVRHRKW | 0.926 ± 0.14
RIDRSYACALSWHVLYVNR | 0.436 ± 0.23
YGGDWCARTPCLSRVNSVKP | inactive
FYFMPNFV | inactive
ATGVMLNDDS | inactive
WAPACYTDSCVMIGGEPYRT | inactive
CTFQYSIIYRCYYRYGVVR | inactive
TITFSWLAYAVGMQPDNNEV | 1.26 ± 0.12
WAIWAYRTLVESMWGTKIGK | inactive
YRAFTFIGCLNGLTNQHFFY | 2.4 ± 0.059
WNMIFTQPNNQPIVVRDFVD | inactive
VAKFYRQ | inactive
CRVVDFG | -0.107 ± 0.49
MLHASV | inactive
PLKTLFCSVLSCVIFLYLLM | inactive

Substance | amyloid nucleation score
VYVAYALFRRD | -0.333 ± 0.9
FVRSQSCS | inactive
CVCPDNDSPCDLGWVRRGNR | inactive
RWNGFVVNTFINTLGRLTKC | -0.578 ± 1
VTGMFDSSLRRKMKVPVWAI | inactive
EVVITLANAEGPAEQEF | inactive
SSERGMLVDNVLSHSWMFCI | 1.35 ± 0.13
ISCYLSDPVYS | -0.493 ± 1
RFHVLINCFSAAGRGNPGSR | 1.69 ± 0.068
YLWARNGDLLLSCCSLNSCM | 2.52 ± 0.061
TCMYNMVVGSLVGRWNC | 1.4 ± 0.13
MNYVIIFTWN | 2.76 ± 0.071
QLHVMNVYFFWKDSSALMRA | inactive
GSVTGAFERYVKKEA | inactive
SHSAFEGKVC | inactive
RRVSHLFLRTCCPSWTYYHL | inactive
FYVSSTP | inactive
LDILTDAFQLLCNKKHNNKP | inactive
LPLLTYSSVSVRPLTSW | inactive
PIMAWIWWRASDPMQKRLVG | inactive
VNTATCYQ | inactive
VGLALRLCLAVLSDRKWILS | inactive
VTVSAQPAIK | inactive
SEGDLKYVW | inactive

Substance | amyloid nucleation score
TLWYSYHINVPYCL | inactive
CMYILFINVCMATGANYGSY | 1.58 ± 0.092
PRIFLSR | inactive
KGSHFFAIFGW | inactive
YFYKNLSSFHFGKMRLK | inactive
VHVSVCRSKGWHDLWRIKCV | inactive
RPGVC | inactive
LNYEIWNISRFRTFFTGVSA | -0.332 ± 0.73
SILLVFHFKANVCLVFT | inactive
RYGIFMEHEIMYHLNPDGFY | inactive
NVYIVFFNFKTQ | 2.34 ± 0.058
FSAPVLSTLTASLLELKRSG | inactive
IYPMLW | -0.428 ± 0.62
VLEMMWVD | 0.144 ± 0.64
GSFNFCSNAARFQ | inactive
NPVRSKWYKVCCDNVGVYMD | inactive
TIGSAWFGKLGDGLALFGLF | inactive
DSTEVRYQNPMTTLRGVVFW | inactive

From the supplement of paper PMC12042874
